Test results published in the DeepSol protein solubility set.

Experiment: soluble on expression in E. coli; label from the status in PepcDB or PDB records

Soluble on expression in E. coli, not soluble:
QLTRERLTATSRYKLSSSDTFRVIGNPEPREGKLRMQVQLTGGSSPSYILYIRHEGEYEPVARGDMLKLRKFYARSVEEWEQKAPAMGRYMAGKGLSGSLHAKTGDVEILSTAKGPFSLRQKALDLSDRLAATLYELSPSLLSDSRRAMLEAMCLGREGEAPDVRRKFVAAGVAH, CSKPETNVVAQDGSTSAAAAQVETQTAESRYLALVDGYFKDYLKLEPIYATFVGVNDYNTQFGGDLTEEYLKARHDLNTRYLAQVKTIDLDELPADLQLSYSLFVYDREMALVDETYPSRFMPISQFYSTVITMVQLGSGESAQPFNTVQDYRNWEQRVNGFIDWIKLAQHRMDEGIASKVVLPRVLVERIIPQLDAMLTTDASQSIFYSPITHFPEGFSAQDKAELTASYQAMISERLVPTLTGLRDYFKQTYLPKSRATDGWSGLPNGKAWYQHLANSHTTTTMPVDEIHQIGLSEVARILSEMDKVREQVGFKGDLKAFFASLSSEPQYFYSDRQGLIDGYMALKDKINLVLPQYFNVMPKADYVVKPVESFREQSAAGASYEAPAVDGSRPGVFYINTYNLKAQPKWGMTTLSLHEAAPGHHFQIAIKQELTGVPEFQRFSGYTAFEEGWALYAEYLGIEMGLFSDPYQYFGKLSDEMLRAMRLVVDTGLHAKGWSREQAIQYMKDNSPMAESDIVAEVERYMAIPGQALSYKVGQLKILALRERAEKALGDKFDLKAFHDQILTSGSLPMAVMEQKIDRWIAANK, MGSDKIHHHHHHVPQRTSFNGSTRPAWKNTTALIRNPKIASILATGGTGMVHAALQSGNPSMGVGAGNGAVYIDHTAFLDRAVEDILLSKRFDNSMVCATENSAVVEAPIYDKWLQMIQDKGAYLVPKKDYQKLADFVFNDKRGVNGPVAGMSARWICEHAGVTLSEGKDVLLFELDPKNIGEKLSSEKLSPLLSVYKAKDREDGIRIVKALLDYQGAGHNAAIQIGSQNDPFIDEYGKAVQASRVLVNQPDALGGIGDIYSDGLRPSLILGTGSWGKNSLSHNLSTSDLLNIKTIAKQRNRPQWIRLPEKIFTKKTSLPIFQMKMSRKSAGPLSSLTRAWSSSTSLTRSMNSWL, MTYRIKKWQKLSTITLLMAGVITLNGGEFRSVDKHQIAVADTNVQTPDYEKLRNTWLDVNYGYDKYDENNPDMKKKFDATEKEATNLLKEMKTESGRKYLWSGAETLETNSSHMTRTYRNIEKIAEAMRNPKTTLNTDENKKKVKDALEWLHKNAYGKEPDKKVKELSENFTKTTGKNTNLNWWDYEIGTPKSLTNTLILLNDQFSNEEKKKFTAPIKTFAPDSDKILSSVGKAELAKGGNLVDISKVKLLECIIEEDKDMMKKSIDSFNKVFTYVQDSATGKERNGFYKDGSYIDHQDVPYTGAYGVVLLEGISQMMPMIKETPFNDKTQNDTTLKSWIDDGFMPLIYKGEMMDLSRGRAISRENETSHSASATVMKSLLRLSDAMDDSTKAKYKKIVKSSVESDSSYKQNDYLNSYSDIDKMKSLMTDNSISKNGLTQQLKIYNDMDRVTYHNKDLDFAFGLSMTSKNVARYESINGENLKGWHTGAGMSYLYNSDVKHYHDNFWVTADMKRLSGTTTLDNEILKDTDDKKSSKTFVGGTKVDDQHASIGMDFENQDKTLTAKKSYFILNDKIVFLGTGIKSTDSSKNPVTTIENRKANGYTLYTDDKQTTNSDNQENNSVFLESTDTKKNIGYHFLNKPKITVKKESHTGKWKEINKSQKDTQKTDEYYEVTQKHSNSDNKYGYVLYPGLSKDVFKTKKDEVTVVKQEDDFHVVKDNESVWAGVNYSNSTQTFDINNTKVEVKAKGMFILKKKDDNTYECSFYNPESTNSASDIESKISMTGYSITNKNTSTSNESGVHFELTK, MSERLESRLAKVPKVTPEDIGNWLAEAETESELTEELNANAVFYLALSFAYESIAADAARYFSYTDGEESVDKSMIFANYKKLSADALKKYRKYRRGKGTHQTFAKRADGR, MGSDKIHHHHHHMKKALVIGGGFAGCSAAHLLSLQGGWDITVVESGPWLGGGCKTLWYGGHPYTFGPRHFLTQNVPVFDYLNKYCPLRRCNDHVFLTYVEKDAQFYNYPIHIDDVARMPEKDQINKELTEAKQLNGAGAAKDFEEYWLASIGRTLYDKFVNTYSKKMWMLDDNKVMDDFSWSPKGVALKEGPRQAWDTAISAYPIAPNGYDDYFEIATRAEGVKVLWTTIEQYDLPNKTVVIDGEKRTYDAIINTASPDLVMDNAFGELPYIGRDFIKFVLPIAHAFPKDVYFLYYASDEPFTRLVEYKQFTRINYDAESTIIGMEIPSKNGRYYPLPLKTEYERAQKYFDAMGENVFSIGRCGSYQYRVDVDDCIAQAMDSVEKLK, MGSDKIHHHHHHMKNTEIRKNIFPVGFYDDIHPDFSVNFQMNRCYTMTNDDVMLKEMREISPSIHNYEEFIEKFLELYNKALNEGHKLRAAYYLRTAEFYMTADHPQKQNYRKQFISLMQEYFNISDEQPYKVPYENGFLPAYRFTSEAPKGTIVMFGGFDSYVEEMFKMALFLKEAGYDVVFFDGPGQGSALEDYKIPMTHEWEKPVKSILDYFELDDVTLLGISLGGYLTVRAAAFEKRVHRVIADDILSNFYEVVLNTLPSQLKEKVNSLMSDGNEQEVNILFKDLMKKSLMVEWAINQGMHITGSKTPYEFLNKILLYNTSKISEKLEQDVLLMAAQEDHYIPLNQFFDQSKSLINVRSLTTRMFTRKETAQNHCQSGNLGLAFEVIANWIEQIQK, MNALLVMTGLAAAASGRIGAACSALLGGGAVRGRSAGASGDEAQAQDADSSPEADRLEDVSPSGAFAGVIAALEVQAPVRDVPPPTDDLANEGEDIARSRVAATAADAVTSGGAARSPRDALGGLAFGQSPMIEAGKALYVSPVRDDERLRNGERFRDGERLRDGADGARAGMRDAASAAGAASTSRVGQPGAGAPRDQQALSQSPGQQAADKPPAGAPGPQEGTIGAPVDMPRAAARAHSPQSAPVRLGAELMSVLGERIDVQLQRGVERAVIRLDPQSMGTLHIAIRHEGGSVQIQMIASHEEVARQLQTMSEALRQDLSSRHHGDVTVVVRHGQGMEQGAGHGEGGAHREEKRPGAALAEADVPDGDDGFRLDGRDVI, MAHHHHHHMRASERVPADDAATRVCPHSLIDSPSPSLMQAASAVATATATSSGIANLKQEASHEERLKVADHTAVKAWSLLNKMWYPDYHMASLAGWMGVPGGLCYHNGFYHVFYQYNPFSENWGPMHWGHMTSEDLVHWQHQPIALAPGELFDHDGCFSGSSVSYNNKLYIFYTGHTWRTESEKGSGNGTMGDGASFYQQQCVAVSSDGVNFEKLGAVVRPPPGYVHFRDPKVWQQDGRWWMVCGARDVTKDLGQLLLFTTEDLLKWDDTNWQVLGMTEDKNVFMWECPDMFRLGQMNVFLYSPQGMRKADYAYRNRFQSGYLLGSWNMSLVTAALSEREAGSPKGTASGSHAIGGPRWLASFDVTQRFREIDRGHDFYAPQTLLTKDGRRLIIGWMDMWESPMPTRGHGWSGCLTLPRELILDPFTGSVRMVPPKELLQLRCAQATILAQRIQESTDVLLVESCTAYELDIAFNMETSTAEKYGLWLGSGAELYVDAQSKRLVLNRHYPQHMLSGYRSCELPIGLLLQLHVFIDRSSIEVFVNNGEATFSSRVFPDEGDRALRVFSVNGTADMVGGTMWKLKATVRH, MPKIAEIEGTPNPNALKFVLKEPLTWGVAKSYDHAEQAVDDPLAAALFDIDHVTNVFYVDRWITITQDGGADWQDLAREVADPIRAAPAATDQSAAVVAAASRTLADLSEEDQQRLERINILLDEEVRPFLQHDGGDLHVLALEGNILRIHYQGACGTCPSSISGTLRGIEQLLRTIEPDIRVVSA, MGSDKIHHHHHHMDFQEKIEELRKIIKDNIEPLITSDYVHLDNPYHGNIGDILIWEGERQFLSSIKYKCLQSSSNSWCENYLHPETVILFNGGGNFGDLYRECQDFRLRVIEQFPNNRIIMFPQSIWYEDESLIAKDAAVMARHNDLTLCARDKWSYNFLKEHFGKNKILLVPDMAFYISDEYLNKYRECVFWGQKLYLRRIDKEMDFSTILDDLRGFDIRDWPSLERRPICLLILRIMKRAAYYLQKITCLTVLQRFVNRLADEYAIRIVRPYLLKRGCDFISPYSEVITTRLHGLILSILFHKPVYYINNTTGKLSAYVDTWHLQDILEVSPYVDKILEKHVD, MKSRFSARQQNSDNTADENKSTTTAVLLTNLGSPDEPTTSAVRRYLREFLSDTRVVEIPRLIWLLILHGIILRIRPAKSAKLYQTVWQDDGAPLISITAAQKEKMATKIKSQYGDNVIVDFAMRYGNPSIASVLQKFQQQGVDKLVVLPLYPQYAGPTTASTFDAVSKELQKWRYIPSIHFLNTYHNNPFYIQALAETVKEHVASHGKPERLVLSYHGMPELFHKWGDPYYDFCQE

Soluble on expression in E. coli, soluble:
MAHHHHHHMRKAVRALQRRASQQAREVAVAANDMDGETATTQRPSFSLFWVQLTQAKVDVVLPPAQPPTPSAEVEAEEESETAERAAHAGHGGSRDTASAHTAAQFRRVHDTNRRVLRIIEACPDETLIVVLAGRCDGEAGGNHFSRAQGTCFAFVKDSSAPGPRPEELTKLTDENNVSALPRASAGGAAVDNIPLQDASALSTAAVPHSVDRETAMVEHTPLACQQQ, MSLSQASTVCALNDHLPNTVLRLPLKYPSTNKELKSHEYFESQIAYTGCLIATTTHMVDHISWRLNNDLKTITLTPICISNPFQLECRTISLLLPSQVYPHCIDAVYHGEEGGYLVVDVIDENYLWITLRIEMNDFLHNTKNFRPLTLDQFESWGHISVPYSFELRSNPYCLRVLDERNVVVSLKDGGLLHFQRSSVLADFNVFNCEESAHFHLGGILDGIFKSGRADLTVDGVSSNAAIDATIVPDPSKSLIATLTVSKTIKFWDLKEHSLLRERTIHPQDTNTWLSFGPARYLQCYGNVLGVHSLLQTKHSTSIDFWDVSPLKEDQKSYKILHTVELLSPTINGAPSDSPFSNDIWFIQDFTLKFEKGNFTVLWKSNNSSILTIYDLKNLAENDKPPKLSQWTLSGSEGHHHHHH, MSLNIAMTGATGYIGKHLSNYLTEKGGHRIIPLGRAMFREGMSGLLVQTLTHCDVIINLAGAPINQRWTPEHKQELFNSRITVTHRIIRALNAVKTKPKLMISASAVGYYPSLVESDEYTQTRGDGFLSDLCYAWEKEAKRCPQPTRLVITRFGVVLSPDGGAMQQMLRPLRATKVAAVIGPGTQPFPWIDIRDLCCAMAFFIENEELRGVFNLVAPQAVSQSTFTRAMGKAYHAWTTLIVPQAVFRLFYGEAASFLTAGQRVRPTRLLEAGFHFSVPTIEKLFEGEGHHHHHH, MQNHVISLASAAERRAHIAATFGARGIPFQFFDALMPSERLEQAMAELVPGLSAHPYLSGVEKACFMSHAVLWKQALDEGLPYIAVFEDDVLLGEGAEKFLAEDAWLKERFDPDSAFIVRLETMFMHVLTSPSGVADYCGRAFPLLESEHWGTAGYIISKKAIRFFLQHFVMLQPEQIKPIDLMMFSDFFDKEGMPVYQVSPALCAQELHYAKFHDQNSALGSLIEHDRLLNRKQQRRDSPANTFKRRLIRALTKISLEHHHHHH, MNGPIIMTREERMKIVHEIKERILDKYGDDVKAIGVYGSLGRQTDGPYSDIEMMCVMSTEEAEFSHEWTTGEWKVEVNFYSEEILLDYASQVESDWPLTHGQFFSILPIYDSGGYLEKVYQTAKSVEAQTFHDAICALIVEELFEYAGKWRNIRVQGPTTFLPSLTVQVAMAGAMLIGLHHRICYTTSASVLTEAVKQSDLPSGYDHLCQFVMSGQLSDSEKLLESLENFWNGIQEWTERHGYIVDVSKRIPF, MQAGPALMSEVASRELRNDTAGVLRRVRAGEDVTITVSGRPVAVLTPVRPRRRRWLSKTEFLSRLRGAQADPGLRNDLAVLAGDTTEDLGPIR
